{"source": "patent US12605469B2", "about": "“Tumor specific antibody conjugates and uses therefor” (The University of North Carolina at Charlotte, priority 2019, dated 2026)", "binders": {"B1": {"name": "TAB-28z-mKATE chimeric antigen receptor (2nd generation), on T cells (receptor)", "chain": "EVQLQQSGGERATPGASVKMSCKTSGYTFTNYWMHWVKQRPGQGLEWIGYINPSSGYTQYNQKFKDKATLTADKSSSTAYIQLSSLTSEDSAVYYCSTYYGDYLFPYWGQGTLVTVSAGGGGSGGGGSGGGGSDVLMTQTPLSLPVSLGDQASISCRSSQDIVYGNGNTYLEWYLQKPGQSPKLLIYKVSNRFSGVPDRFSGSGSGTDFTLKISRVEAEDLGVYYCFQGSHVPYTFGGGTKLEIKRAAAIEVEQKLISEEDLLDNEKSNGTIIHVKGKHLCPSPLFPGPSKPFWVLVVVGGVLACYSLLVTVAFIIFWVRSKRSRLLHSDYMNMTPRRPGPTRKHYQPYAPPRDFAAYRSRVKFSRSADAPAYQQGQNQLYNELNLGRREEYDVLDKRRGRDPEMGGKPRRKNPQEGLYNELQKDKMAEAYSEIGMKGERRRGKGHDGLYQGLSTATKDTYDALHMQALPPRARGAAAGAGGAGRMVSELIKENMHMKLYMEGTVNNHHFKCTSEGEGKPYEGTQTMRIKAVEGGPLPFAFDILATSFMYGSKTFINHTQGIPDFFKQSFPEGFTWERVTTYEDGGVLTATQDTSLQDGCLIYNVKIRGVNFPSNGPVMQKKTLGWEASTETLYPADGGLEGRADMALKLVGGGHLICNLKTTYRSKKPAKNLKMPGVYYVDRRLERIKEADKETYVEQHEVAVARYCDLPSKLGHR", "notes": "Expressed on the surface of T cells or Jurkat cells; also called CAR-mKATE; CAR-mKate fusion protein"}}, "molecular_target": "T1, human MUC1, tumor-associated form (tMUC), on tumor cells and tumor tissue (human, UniProt P15941 24-1255, tumor-associated (aberrant) glycosylation, not specified further)", "T1 construct": "also called tMUC1; tumor-associated glycosylated MUC1", "T1 sequence (P15941 other isoform, or with tags, fused parts or gaps limits assumed)": "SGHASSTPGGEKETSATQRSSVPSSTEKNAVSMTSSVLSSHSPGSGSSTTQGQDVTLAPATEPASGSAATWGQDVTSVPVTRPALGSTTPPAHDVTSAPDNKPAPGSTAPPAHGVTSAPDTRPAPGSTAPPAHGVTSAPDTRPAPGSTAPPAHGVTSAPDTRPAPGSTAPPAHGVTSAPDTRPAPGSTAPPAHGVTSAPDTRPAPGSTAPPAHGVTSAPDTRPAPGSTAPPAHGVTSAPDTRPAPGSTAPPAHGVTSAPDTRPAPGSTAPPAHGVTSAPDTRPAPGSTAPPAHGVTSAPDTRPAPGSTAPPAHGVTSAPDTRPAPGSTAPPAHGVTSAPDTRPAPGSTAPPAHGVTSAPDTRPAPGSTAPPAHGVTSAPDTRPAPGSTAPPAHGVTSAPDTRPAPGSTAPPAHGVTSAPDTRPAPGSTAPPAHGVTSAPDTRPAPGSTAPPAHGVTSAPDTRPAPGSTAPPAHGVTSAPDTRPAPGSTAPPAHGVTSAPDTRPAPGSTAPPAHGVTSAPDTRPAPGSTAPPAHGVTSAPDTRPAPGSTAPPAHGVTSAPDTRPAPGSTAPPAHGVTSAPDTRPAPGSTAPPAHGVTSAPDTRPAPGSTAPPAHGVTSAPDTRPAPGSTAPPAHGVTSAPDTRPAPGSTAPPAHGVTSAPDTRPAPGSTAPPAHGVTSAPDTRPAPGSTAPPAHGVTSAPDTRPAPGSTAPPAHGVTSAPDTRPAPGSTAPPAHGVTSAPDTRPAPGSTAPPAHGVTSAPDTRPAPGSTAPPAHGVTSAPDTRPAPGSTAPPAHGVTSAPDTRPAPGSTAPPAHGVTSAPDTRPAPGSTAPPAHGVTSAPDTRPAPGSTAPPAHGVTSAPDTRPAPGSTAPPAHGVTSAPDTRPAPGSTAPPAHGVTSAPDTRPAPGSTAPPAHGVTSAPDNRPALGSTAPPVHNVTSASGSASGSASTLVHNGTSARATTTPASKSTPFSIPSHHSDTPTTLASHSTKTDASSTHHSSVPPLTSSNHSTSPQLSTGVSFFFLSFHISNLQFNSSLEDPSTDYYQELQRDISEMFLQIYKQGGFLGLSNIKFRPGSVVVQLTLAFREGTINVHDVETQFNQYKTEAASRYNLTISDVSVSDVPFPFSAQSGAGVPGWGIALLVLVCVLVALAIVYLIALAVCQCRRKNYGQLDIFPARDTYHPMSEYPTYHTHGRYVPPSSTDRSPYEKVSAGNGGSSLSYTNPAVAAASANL", "assay": "fluorescence microscopy of CAR T cells co-incubated with HPAFII cells"}
{"binder": "B1", "values": [{"measurement": "binding result", "result": "binds"}]}
